These results are taken from PMC11497058 (2024).

Test [1] has as its target T1, Recombinant His‐tagged GRB2 protein (human, UniProt P62993 1-217). Description: BLI.
For test [2], the target named is T1, Recombinant His‐tagged GRB2 protein. The test is described as follows: BLI; GRB2 preincubated with Rg3.

T1 sequence (P62993 whole entry): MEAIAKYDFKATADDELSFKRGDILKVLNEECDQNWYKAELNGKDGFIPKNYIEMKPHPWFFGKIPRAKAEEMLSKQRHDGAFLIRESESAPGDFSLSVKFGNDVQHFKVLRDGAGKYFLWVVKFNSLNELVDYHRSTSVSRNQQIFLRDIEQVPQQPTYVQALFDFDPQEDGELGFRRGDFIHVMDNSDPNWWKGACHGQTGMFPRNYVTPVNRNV

B1: Recombinant His‐tagged TRKA protein (receptor)
chain: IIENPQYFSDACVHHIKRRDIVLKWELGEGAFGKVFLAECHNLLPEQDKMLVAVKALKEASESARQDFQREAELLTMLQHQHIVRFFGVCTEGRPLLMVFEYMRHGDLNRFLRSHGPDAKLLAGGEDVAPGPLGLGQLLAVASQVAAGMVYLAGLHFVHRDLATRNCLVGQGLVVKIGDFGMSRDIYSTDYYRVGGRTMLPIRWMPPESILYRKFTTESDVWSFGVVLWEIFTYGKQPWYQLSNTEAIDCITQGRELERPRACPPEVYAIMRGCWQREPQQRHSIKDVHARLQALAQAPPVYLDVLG
modifications: biotin (EZ‐Link NHS‐PEG12‐Biotin)
Take B1: the Kd in test [1] came out at 74.7 nM; in test [2], 14 nM.

Usually Kd stands for the free concentration of one partner at which half of the binding sites on the other are occupied at equilibrium, for simple one-to-one binding.
